Article PMC8113555

Tests used:
[1] = target: TEBP-1-His5 (Caenorhabditis elegans) (UniProt O62329); experiment: fluorescence polarization; conditions: FP: 20 mM HEPES pH 7.0, 100 mM NaCl, 5% glycerol, 20 nM probe, 10 min at RT; pull-down: 50 mM Tris/HCl pH 7.5, 150 mM NaCl, 0.5% NP-40, 5 mM MgCl2, 1 mM DTT …
[2] = target: TEBP-2-His5 (Caenorhabditis elegans) (UniProt Q22429); experiment: fluorescence polarization; conditions: FP: 20 mM HEPES pH 7.0, 100 mM NaCl, 5% glycerol, 20 nM probe, 10 min at RT; pull-down: 50 mM Tris/HCl pH 7.5, 150 mM NaCl, 0.5% NP-40, 5 mM MgCl2, 1 mM DTT …
TEBP-2-His5 (Caenorhabditis elegans), sequence (Q22429 entry or part of it): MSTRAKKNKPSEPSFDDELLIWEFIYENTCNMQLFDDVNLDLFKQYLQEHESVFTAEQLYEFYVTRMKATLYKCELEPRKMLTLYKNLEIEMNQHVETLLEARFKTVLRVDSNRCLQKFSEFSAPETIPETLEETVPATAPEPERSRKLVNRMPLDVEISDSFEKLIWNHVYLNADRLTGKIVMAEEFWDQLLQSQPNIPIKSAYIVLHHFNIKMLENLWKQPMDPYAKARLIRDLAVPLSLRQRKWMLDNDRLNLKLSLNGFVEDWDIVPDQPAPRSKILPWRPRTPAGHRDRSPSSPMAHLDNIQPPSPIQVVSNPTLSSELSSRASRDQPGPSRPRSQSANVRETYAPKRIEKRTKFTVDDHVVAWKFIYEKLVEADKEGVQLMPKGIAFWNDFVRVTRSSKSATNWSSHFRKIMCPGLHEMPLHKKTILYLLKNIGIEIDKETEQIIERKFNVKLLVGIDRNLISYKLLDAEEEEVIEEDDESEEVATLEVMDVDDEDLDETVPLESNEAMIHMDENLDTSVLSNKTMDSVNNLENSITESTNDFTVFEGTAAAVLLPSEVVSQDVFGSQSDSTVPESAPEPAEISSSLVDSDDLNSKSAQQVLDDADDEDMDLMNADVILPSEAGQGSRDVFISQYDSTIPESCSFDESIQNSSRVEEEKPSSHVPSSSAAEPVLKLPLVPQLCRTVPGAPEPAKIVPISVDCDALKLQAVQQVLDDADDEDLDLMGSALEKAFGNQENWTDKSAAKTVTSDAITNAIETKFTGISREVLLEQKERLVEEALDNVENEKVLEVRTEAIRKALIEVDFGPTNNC

“CTGTTAGGCTTAGGCTTAG (double strand) [2.5x TTAGGC ds]” gave a Kd [1] of 129 nM and a Kd [2] of 37.8 nM.
